Six sequences from the supplement of paper PMC5998384 can be followed below.

For data set [1], the system named is HeLa Kyoto. The data set is described as follows: solubility in G1/S (NP-40 vs SDS abundance) (log2 ratio); higher = more soluble. The following applies: cell cycle stage: G1/S.
The test system of data set [2] is HeLa Kyoto. The experiment in a line: melting temperature (median over replicates), in situ; higher = more thermally stable.
Data set [3] deals with HeLa Kyoto. The experiment in a line: solubility change mitosis vs G1/S (difference of NP-40 vs SDS log2 ratios) (log2 ratio difference); higher = more soluble in mitosis.
The subject of data set [4] is HeLa Kyoto. The data set is described as follows: thermal stability score vs G1/S (z-score of summed log2 fold changes over temperatures); higher = more thermally stable than in G1/S.
Where [5] appears, read: cell cycle stage: early G1 (4.5 h after nocodazole release).
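Wherever melting temperature (median over replicates), in situ is given: HeLa Kyoto cells synchronized by double thymidine or nocodazole block, proteins quantified by TMT10plex mass spectrometry, three independent biological replicates.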
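Wherever solubility change mitosis vs G1/S (difference of NP-40 vs SDS log2 ratios) is given: synchronized HeLa Kyoto cells (double thymidine block for G1/S, nocodazole release for mitosis), protein amounts in NP-40 versus SDS lysates quantified by mass spectrometry, three biological replicates.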
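Wherever solubility in G1/S (NP-40 vs SDS abundance) is given: HeLa Kyoto cells arrested at G1/S by double thymidine block, proteins quantified by TMT10plex mass spectrometry in mild NP-40 versus SDS extracts, three biological replicates.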
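Wherever thermal stability score vs G1/S (z-score of summed log2 fold changes over temperatures) is given: synchronized HeLa Kyoto cells, proteins quantified by TMT10plex mass spectrometry, three biological replicates, mitosis taken 0.5 h after nocodazole release, G1/S directly after double thymidine block.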

As to “MAGNFDSEERSSWYWGRLSRQEAVALLQGQRHGVFLVRDSSTSPGDYVLSVSENSRVSHYIINSSGPRPPVPPSPAQPPPGVSPSRLRIGDQEFDSLPALLEFYKIHYLDTTTLIEPVSRSRQGSGVILRQEEAEYVRALFDFNGNDEEDLPFKKGDILRIRDKPEEQWWNAEDSEGKRGMIPVPYVEKYRPASASVSALIGGNQEGSHPQPLGGPEPGPYAQPSVNTPLPNLQNGPIYARVIQKRVPNAYDKTALALEVGELVKVTKINVSGQWEGECNGKRGHFPFTHVRLLDQQNPDEDFS [CRK]”, the “solubility in G1/S (log2)” value in the data set with HeLa Kyoto [1] was 0.342. For the same sequence, the melting temperature in the data set on HeLa Kyoto [2] (cell cycle stage: G1/S) was determined as 50.6 °C; in the data set with HeLa Kyoto [2] (cell cycle stage: mitosis), 51.5 °C. Further, the “solubility change mitosis (log2)” value with HeLa Kyoto [3] is -0.104. Also, the thermal stability score with HeLa Kyoto [4] (setting [5]) was -0.547; in the data set with HeLa Kyoto [4] (cell cycle stage: mitosis), -1.21.
In the case of “MAGPELLLDSNIRLWVVLPIVIITFFVGMIRHYVSILLQSDKKLTQEQVSDSQVLIRSRVLRENGKYIPKQSFLTRKYYFNNPEDGFFKKTKRKVVPPSPMTDPTMLTDMMKGNVTNVLPMILIGGWINMTFSGFVTTKVPFPLTLRFKPMLQQGIELLTLDASWVSSASWYFLNVFGLRSIYSLILGQDNAADQSRMMQEQMTGAAMAMPADTNKAFKTEWEALELTDHQWALDDVEEELMAKDLHFEGMFKKELQTSIF [EMC3]”, in the data set with HeLa Kyoto [1], the “solubility in G1/S (log2)” value was -0.174. The melting temperature is 54.1 °C in the data set with HeLa Kyoto [2] (cell cycle stage: G1/S) and 53.7 °C in the data set with HeLa Kyoto [2] (cell cycle stage: mitosis). In addition, the “solubility change mitosis (log2)” value in the data set on HeLa Kyoto [3] is -0.25. For the same sequence, the thermal stability score in the data set on HeLa Kyoto [4] (setting [5]) is -0.437; with HeLa Kyoto [4] (cell cycle stage: mitosis) it was -0.599.
Take “MAGPGPGPGDPDEQYDFLFKLVLVGDASVGKTCVVQRFKTGAFSERQGSTIGVDFTMKTLEIQGKRVKLQIWDTAGQERFRTITQSYYRSANGAILAYDITKRSSFLSVPHWIEDVRKYAGSNIVQLLIGNKSDLSELREVSLAEAQSLAEHYDILCAIETSAKDSSNVEEAFLRVATELIMRHGGPLFSEKSPDHIQLNSKDIGEGWGCGC [RAB43]”: in the data set with HeLa Kyoto [1], the “solubility in G1/S (log2)” value is -0.224. Moreover, the melting temperature in the data set with HeLa Kyoto [2] (cell cycle stage: G1/S) is 55.1 °C; with HeLa Kyoto [2] (cell cycle stage: mitosis), 54.6 °C. Further, the “solubility change mitosis (log2)” value with HeLa Kyoto [3] stood at 0.296. Also, the thermal stability score in the data set on HeLa Kyoto [4] (setting [5]) is -0.0567; in the data set with HeLa Kyoto [4] (cell cycle stage: mitosis), 0.366.
As for “MAGQGLPLHVATLLTGLLECLGFAGVLFGWPSLVFVFKNEDYFKDLCGPDAGPIGNATGQADCKAQDERFSLIFTLGSFMNNFMTFPTGYIFDRFKTTVARLIAIFFYTTATLIIAFTSAGSAVLLFLAMPMLTIGGILFLITNLQIGNLFGQHRSTIITLYNGAFDSSSAVFLIIKLLYEKGISLRASFIFISVCSTWHVARTFLLMPRGHIPYPLPPNYSYGLCPGNGTTKEEKETAEHENRELQSKEFLSAKEETPGAGQKQELRSFWSYAFSRRFAWHLVWLSVIQLWHYLFIGTLNSLLTNMAGGDMARVSTYTNAFAFTQFGVLCAPWNGLLMDRLKQKYQKEARKTGSSTLAVALCSTVPSLALTSLLCLGFALCASVPILPLQYLTFILQVISRSFLYGSNAAFLTLAFPSEHFGKLFGLVMALSAVVSLLQFPIFTLIKGSLQNDPFYVNVMFMLAILLTFFHPFLVYRECRTWKESPSAIA [SLC43A3]”, the “solubility in G1/S (log2)” value with HeLa Kyoto [1] was 0.205. Further, the melting temperature stood at 58.3 °C in the data set with HeLa Kyoto [2] (cell cycle stage: G1/S) and 58.2 °C in the data set with HeLa Kyoto [2] (cell cycle stage: mitosis). The “solubility change mitosis (log2)” value in the data set with HeLa Kyoto [3] is -0.114. Further, the thermal stability score was -0.857 with HeLa Kyoto [4] (setting [5]) and -2.36 in the data set with HeLa Kyoto [4] (cell cycle stage: mitosis).
With “MAGYLRVVRSLCRASGSRPAWAPAALTAPTSQEQPRRHYADKRIKVAKPVVEMDGDEMTRIIWQFIKEKLILPHVDIQLKYFDLGLPNRDQTDDQVTIDSALATQKYSVAVKCATITPDEARVEEFKLKKMWKSPNGTIRNILGGTVFREPIICKNIPRLVPGWTKPITIGRHAHGDQYKATDFVADRAGTFKMVFTPKDGSGVKEWEVYNFPAGGVGMGMYNTDESISGFAHSCFQYAIQKKWPLYMSTKNTILKAYDGRFKDIFQEIFDKHYKTDFDKNKIWYEHRLIDDMVAQVLKSSGGFVWACKNYDGDVQSDILAQGFGSLGLMTSVLVCPDGKTIEAEAAHGTVTRHYREHQKGRPTSTNPIASIFAWTRGLEHRGKLDGNQDLIRFAQMLEKVCVETVESGAMTKDLAGCIHGLSNVKLNEHFLNTTDFLDTIKSNLDRALGRQ [IDH2]”, the “solubility in G1/S (log2)” value with HeLa Kyoto [1] was 0.137. The melting temperature was found to be 53.7 °C in the data set on HeLa Kyoto [2] (cell cycle stage: G1/S) and 54.1 °C with HeLa Kyoto [2] (cell cycle stage: mitosis). Moreover, the “solubility change mitosis (log2)” value with HeLa Kyoto [3] is -0.113. Also, the thermal stability score in the data set with HeLa Kyoto [4] (setting [5]) is -0.161; with HeLa Kyoto [4] (cell cycle stage: mitosis) it was 0.659.
Take “MAILFAVVARGTTILAKHAWCGGNFLEVTEQILAKIPSENNKLTYSHGNYLFHYICQDRIVYLCITDDDFERSRAFNFLNEIKKRFQTTYGSRAQTALPYAMNSEFSSVLAAQLKHHSENKGLDKVMETQAQVDELKGIMVRNIDLVAQRGERLELLIDKTENLVDSSVTFKTTSRNLARAMCMKNLKLTIIIIIVSIVFIYIIVSPLCGGFTWPSCVKK [VAMP7]”: the “solubility in G1/S (log2)” value with HeLa Kyoto [1] is -0.0498. The melting temperature amounted to 54.4 °C in the data set with HeLa Kyoto [2] (cell cycle stage: G1/S) and 53.1 °C in the data set on HeLa Kyoto [2] (cell cycle stage: mitosis). In addition, the “solubility change mitosis (log2)” value with HeLa Kyoto [3] was -0.283. In addition, the thermal stability score in the data set with HeLa Kyoto [4] (setting [5]) was 1.62; in the data set with HeLa Kyoto [4] (cell cycle stage: mitosis) it was 1.41.
